Results published in paper PMC7586746, “A putative nuclear copper chaperone promotes plant immunity in Arabidopsis” (Journal of Experimental Botany, 2020).
One block for each binder: values may come before it.

Tests used:
TGA2;NPR1 = TGA2;NPR1 (Arabidopsis thaliana?;Arabidopsis …, UniProt P43273;P93002 1-330;1-593, |); experiment: EMSA; with NPR1; substantially more probe bound than TGA2 alone; LightShift EMSA kit: 500 ng GST-tagged protein, 4 fmol biotin-LS7 probe, 20 ul with 1 ul dI-dC, 1 ul 50% glycerol, kit 10x binding buffer, 20 min, 25 C; 6% native gel; salt and pH not stated; settings: protein: recombinant;recombinant; tags: GST (N-terminal);GST (N-terminal); blunt
NPR1 = NPR1 (UniProt P93002 1-593); experiment: EMSA; NPR1 alone; LightShift EMSA kit: 500 ng GST-tagged protein, 4 fmol biotin-LS7 probe, 20 ul with 1 ul dI-dC, 1 ul 50% glycerol, kit 10x binding buffer, 20 min, 25 C; 6% native gel; salt and pH not stated; settings: protein: recombinant; tags: GST (N-terminal); blunt
GST–NPR1 = target: T1, GST–NPR1 (UniProt P93002 1-593); experiment: pull-down; GST pull-down in vitro of His-CCP and His-TGA2 added together, in the presence of Cu^2+ (Supplementary Fig. S13); settings: both partners purified
T1 construct: NPR1 (non-expressor of pathogenesis-related gene 1), cloned into pGEX-4T-1; source: E. coli BL21, purified
T1 sequence (looked up): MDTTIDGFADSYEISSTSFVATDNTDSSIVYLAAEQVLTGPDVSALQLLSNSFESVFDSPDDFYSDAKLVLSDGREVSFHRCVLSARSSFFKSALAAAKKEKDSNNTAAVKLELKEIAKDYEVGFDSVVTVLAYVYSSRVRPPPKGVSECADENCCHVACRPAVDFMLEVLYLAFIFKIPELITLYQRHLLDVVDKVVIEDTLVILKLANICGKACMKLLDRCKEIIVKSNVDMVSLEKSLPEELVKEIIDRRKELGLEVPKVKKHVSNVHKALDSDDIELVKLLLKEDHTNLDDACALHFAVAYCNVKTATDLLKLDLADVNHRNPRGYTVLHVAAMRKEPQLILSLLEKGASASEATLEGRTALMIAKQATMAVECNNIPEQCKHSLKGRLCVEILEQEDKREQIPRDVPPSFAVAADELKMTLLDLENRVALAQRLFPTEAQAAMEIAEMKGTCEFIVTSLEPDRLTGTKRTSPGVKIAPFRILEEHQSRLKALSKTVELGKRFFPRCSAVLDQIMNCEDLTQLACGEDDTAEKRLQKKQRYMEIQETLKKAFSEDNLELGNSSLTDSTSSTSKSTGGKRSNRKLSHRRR

B1: LS7 probe (PR1 promoter) (dsDNA)
DNA 1: TATTTTACTTACGTCATAGATGTGGCGGCA
DNA 2: TGCCGCCACATCTATGACGTAAGTAAAATA
binding result (TGA2;NPR1): binds
binding result (NPR1): no binding

binding result (GST–NPR1): binds
B2: His-TGA2 (natural protein, UniProt P43273 1-330, looked up)
chain: MADTSPRTDVSTDDDTDHPDLGSEGALVNTAASDSSDRSKGKMDQKTLRRLAQNREAARKSRLRKKAYVQQLENSRLKLTQLEQELQRARQQGVFISGTGDQAHSTGGNGALAFDAEHSRWLEEKNKQMNELRSALNAHAGDSELRIIVDGVMAHYEELFRIKSNAAKNDVFHLLSGMWKTPAERCFLWLGGFRSSELLKLLANQLEPMTERQLMGINNLQQTSQQAEDALSQGMESLQQSLADTLSSGTLGSSSSGNVASYMGQMAMAMGKLGTLEGFIRQADNLRLQTLQQMIRVLTTRQSARALLAIHDYFSRLRALSSLWLARPRE
notes: transcription factor TGA2
